*1 amine or outer side, *2 acyl side, *3 side chain or, on linkers, in order; H or OH if unused. Bridges are numbered along the chain shown (N, C = ends). Primed or numbered codes have the meaning given here. [ ]: non-standard residue; d: D form. PyrS2(6) = (S)-3-amino-1-((pent-4-en-1-yloxy)carbonyl)pyrrolidine-3-carboxylic acid, stapled with another olefin-containing amino acid residue through the olefin group, O=C(OCCCC=[*:3])N1CC[C@@](N[*:1])(C(=O)[*:2])C1; B5(4) = 2-amino-2-(pent-4-en-1-yl)hept-6-enoic acid, stapled through each of its two olefin groups with other olefin-containing amino acid residues, O=C(C(CCCC=[*:3])(CCCC=[*:4])N[*:1])[*:2]; PyrS2″ = (S)-3-amino-1-((pent-4-en-1-yloxy)carbonyl)pyrrolidine-3-carboxylic acid (olefin stapling residue), C=CCCCOC(=O)N1CC[C@@](N[*:1])(C(=O)[*:2])C1; PyrS2(3) = (S)-3-amino-1-((pent-4-en-1-yloxy)carbonyl)pyrrolidine-3-carboxylic acid, olefin residue, C=CCCCOC(=O)N1CC[C@@](N[*:1])(C(=O)[*:2])C1; PyrS2(5) = (S)-3-amino-1-((pent-4-en-1-yloxy)carbonyl)pyrrolidine-3-carboxylic acid, C=CCCCOC(=O)N1CC[C@@](N[*:1])(C(=O)[*:2])C1; B5″ = 2-amino-2-(pent-4-en-1-yl)hept-6-enoic acid (bis-olefin stapling residue), C=CCCCC(CCCC=C)(N[*:1])C(=O)[*:2]; B5(5) = 2-amino-2-(pent-4-en-1-yl)hept-6-enoic acid (two olefin arms), C=CCCCC(CCCC=C)(N[*:1])C(=O)[*:2]; B5(3) = 2-amino-2-(pent-4-en-1-yl)hept-6-enoic acid, two olefin arms, C=CCCCC(CCCC=C)(N[*:1])C(=O)[*:2]; 2F3MeF(3) = aromatic amino acid residue, Cc1cccc(C[C@H](N[*:1])C(=O)[*:2])c1F; 2F3MeF″ = aromatic residue, Cc1cccc(C[C@H](N[*:1])C(=O)[*:2])c1F; Phe(3-COOH) = N[C@@H](Cc1cccc(C(=O)O)c1)C(=O)O; 2F3MeF = Cc1cccc(C[C@H](N[*:1])C(=O)[*:2])c1F; Bta = N[C@@H](Cc1csc2ccccc12)C(=O)O; αAllylPro = C=CC[C@@]1(C(=O)O)CCCN1; BztA = aromatic amino acid residue; 4mampiperidine = not defined here; tBuAla = CC(C)(C)C[C@H](N)C(=O)O; 3Thi = N[C@@H](Cc1ccsc1)C(=O)O; Cha = N[C@@H](CC1CCCCC1)C(=O)O; TriAzLys(3) = not defined here; hSer = N[C@@H](CCO)C(=O)O; BztA″ = aromatic residue; Orn = NCCC[C@H](N)C(=O)O; TfeGA = not defined here; AsnR = not defined here; GlnR = not defined here; sAla = not defined here; PL3 = not defined here; B5 = not defined here

Experiment [1] addresses beta-catenin (human). As to the kind of experiment: fluorescence polarization; bin >50 nM. On the technique in general: Polarisation of emitted light reports the rotation of a fluorescent probe.
Experiment [2] addresses beta-catenin (human). In words: fluorescence polarization; bin >200 nM.
The target in experiment [3] is beta-catenin (human). In words: cell-based or functional assay.
Sequence of beta-catenin (human) (B6V8E6 146-665 limits assumed): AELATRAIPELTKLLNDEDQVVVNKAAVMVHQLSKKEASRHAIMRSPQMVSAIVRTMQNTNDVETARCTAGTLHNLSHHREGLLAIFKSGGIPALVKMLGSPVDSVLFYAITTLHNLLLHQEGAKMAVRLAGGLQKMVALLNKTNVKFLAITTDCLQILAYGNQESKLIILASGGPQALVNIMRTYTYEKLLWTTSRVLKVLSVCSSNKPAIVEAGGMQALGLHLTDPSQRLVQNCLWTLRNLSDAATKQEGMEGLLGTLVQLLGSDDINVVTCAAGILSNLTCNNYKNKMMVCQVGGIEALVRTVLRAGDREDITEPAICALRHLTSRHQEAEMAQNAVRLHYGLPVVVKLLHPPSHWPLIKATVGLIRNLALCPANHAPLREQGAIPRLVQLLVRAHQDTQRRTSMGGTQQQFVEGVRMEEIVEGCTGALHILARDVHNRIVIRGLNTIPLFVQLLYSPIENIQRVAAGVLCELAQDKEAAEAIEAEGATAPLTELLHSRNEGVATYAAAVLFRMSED

B1: I-86 (peptide)
peptide: Ac-[PL3]D[tBuAla][B5]N[Phe(3-COOH)]SAFK[PyrS2″][3Thi][BztA][GlnR]A-NH2
modifications: staple 1-4 (inferred); bridge 10-14; not fully specified (residue 10, bridges); printed as Ac-PL3-Asp-Npg-B5-Asn-3COOHF-Ser-Ala-Phe-Lys*3-PyrS2-3Thi-BztA-GlnR*3-Ala-NH2; reading uncertain; also: Lys10 and GlnR14 marked *3
The term IC50 denotes the concentration at which inhibition is half-maximal. B1: the IC50 with beta-catenin (human) [1] is < 200 nM.

B2: I-36 (peptide)
peptide: Ac-[αAllylPro]D[tBuAla][B5(5)]D[Phe(3-COOH)]AAF[AsnR][PyrS2(5)][3Thi][Bta]K-NH2
modifications: bridge 10-14; not fully specified (bridges); printed as Ac-PL3-Asp-Npg-B5-Asp-3COOHF-Ala-Ala-Phe-AsnR*3-PyrS2-3Thi-BztA-Lys*3-NH2; reading uncertain
As to B2, the half-inhibitory concentration (IC50) with beta-catenin (human) [2] is < 750 nM.

B3: I-130 (peptide)
peptide: Ac-[αAllylPro]D[tBuAla][B5]D[Phe(3-COOH)][GlnR]AFL[PyrS2″][2F3MeF″][BztA″][(39N2spiroundecane)GlnR]A-NH2
modifications: reading uncertain; also: staple links not given here, printed as Ac-PL3-Asp-Npg-B5-Asp-3COOHF-GlnR-Ala-Phe-Leu-PyrS2-2F3MeF-BztA-[39N2spiroundecane]GlnR-Ala-NH2
In the case of B3, the NanoBRET Abs IC50 with beta-catenin (human) [3] was > 10000 nM. Also, the IC50 in the experiment with beta-catenin (human) [1] is < 200 nM.

B4: I-94 (peptide)
peptide: Ac-[αAllylPro]D[tBuAla][B5(4)]D[Phe(3-COOH)][GlnR](4aminopiperidine)AFL[PyrS2″][2F3MeF(3)][BztA][GlnR]A-NH2
modifications: staple 1-4 (inferred); not fully specified (bridges); printed as Ac-PL3-Asp-Npg-B5-Asp-3COOHF-[4aminopiperidine]GlnR-Ala-Phe-Leu-PyrS2-2F3MeF-BztA-GlnR-Ala-NH2; reading uncertain
Consider B4, for which the IC50 in the experiment with beta-catenin (human) [2] was < 750 nM.

B5: I-123 (peptide)
peptide: Ac-[αAllylPro]D[tBuAla][B5(4)]D[TfeGA]FAFK[PyrS2″][2F3MeF][Bta][GlnR]A-NH2
modifications: bridge 10-14; not fully specified (bridges); reading uncertain; also: Lys*3 and GlnR*3 marked *3
In the case of B5, the NanoBRET Abs IC50 with beta-catenin (human) [3] was > 10000 nM. The IC50 with beta-catenin (human) [1] was < 200 nM.

B6: I-117 (peptide)
peptide: Ac-[αAllylPro]D[tBuAla][B5″]N[TfeGA]AAFK[PyrS2″][2F3MeF][Bta][GlnR]A-NH2
modifications: bridge 10-14; not fully specified (bridges); reading uncertain; also: Lys*3 and GlnR*3 marked *3
Regarding B6, the IC50 in the experiment with beta-catenin (human) [2] is < 750 nM.

B7: I-83 (peptide)
peptide: Ac-[PL3]D[tBuAla][B5][hSer][Phe(3-COOH)]AAFK[PyrS2″][3Thi][BztA][GlnR]A-NH2
modifications: staple 1-4 (inferred); bridge 10-14; not fully specified (residue 10, bridges); printed as Ac-PL3-Asp-Npg-B5-Hse-3COOHF-Ala-Ala-Phe-Lys*3-PyrS2-3Thi-BztA-GlnR*3-Ala-NH2; reading uncertain
For the molecule B7, in the experiment with beta-catenin (human) [2], the IC50 was < 750 nM.

B8: I-148 (peptide)
peptide: Ac-[αAllylPro]N[Cha][B5″]DQ[hSer]AF[GlnR][PyrS2″]F[Bta]K-NH2
modifications: bridge 10-14; reading uncertain; also: PL3-B5 and PyrS2 links not placed, printed as Ac-PL3-Asn-Cha-B5-Asp-Gln-Hse-Ala-Phe-GlnR*3-PyrS2-Phe-BztA-Lys*3-NH2
On to B8, for which the IC50 with beta-catenin (human) [2] was < 750 nM.

B9: I-87 (peptide)
peptide: Ac-[PL3]D[tBuAla][B5][hSer][Phe(3-COOH)]SAFK[PyrS2(5)][3Thi][BztA][GlnR]A-NH2
modifications: staple 1-4 (inferred); bridge 10-14; not fully specified (residue 10, bridges); printed as Ac-PL3-Asp-Npg-B5-Hse-3COOHF-Ser-Ala-Phe-Lys*3-PyrS2-3Thi-BztA-GlnR*3-Ala-NH2; reading uncertain; also: Lys10 and GlnR14 marked *3
Consider B9, for which the 50% inhibitory concentration (IC50) with beta-catenin (human) [2] was < 750 nM.

B10: I-27 (peptide)
peptide: Ac-[αAllylPro]D[tBuAla][B5(4)]D[Phe(3-COOH)][sAla]AF[TriAzLys(3)][PyrS2(6)][3Thi][Bta]Q-NH2
modifications: triazole 7-10; not fully specified (bridges); printed as Ac-PL3-Asp-Npg-B5-Asp-3COOHF-sAla*3-Ala-Phe-TriAzLys*3-PyrS2-3Thi-BztA-Gln-NH2; reading uncertain
As for B10, the 50% inhibitory concentration (IC50) with beta-catenin (human) [2] was < 750 nM.

B11: I-128 (peptide)
peptide: Ac-[αAllylPro]D[tBuAla][B5(4)]D[TfeGA]AAFK[PyrS2″][2F3MeF][Bta][GlnR]L-NH2
modifications: bridge 10-14; not fully specified (bridges); reading uncertain; also: Lys*3 and GlnR*3 marked *3
With B11, the NanoBRET Abs IC50 (bin >3.0 uM) with beta-catenin (human) [3] is < 10000 nM. Moreover, the half-maximal inhibitory concentration (IC50) with beta-catenin (human) [1] is < 200 nM.

B12: I-96 (peptide)
peptide: Ac-[αAllylPro]D[tBuAla][B5(4)]D[Phe(3-COOH)][GlnR]AFL[PyrS2″][2F3MeF(3)][BztA][GlnR](4mampiperidine)A-NH2
modifications: staple 1-4 (inferred); not fully specified (bridges); printed as Ac-PL3-Asp-Npg-B5-Asp-3COOHF-GlnR-Ala-Phe-Leu-PyrS2-2F3MeF-BztA-[4mampiperidine]GlnR-Ala-NH2; reading uncertain
Turning to B12, the IC50 in the experiment with beta-catenin (human) [2] is < 750 nM.

B13: I-58 (peptide)
peptide: Ac-[αAllylPro]D[tBuAla][B5(3)]D[Phe(3-COOH)]AAFK[PyrS2(3)][2F3MeF″][Bta][AsnR]A-NH2
modifications: bridge 10-14; not fully specified (bridges); printed as Ac-PL3-Asp-Npg-B5-Asp-3COOHF-Ala-Ala-Phe-Lys*3-PyrS2-2F3MeF-BztA-AsnR*3-Ala-NH2; reading uncertain
Regarding B13, in the experiment with beta-catenin (human) [3], the NanoBRET Abs IC50 is > 10000 nM. Besides, the IC50 with beta-catenin (human) [1] is < 200 nM.

B14: I-93 (peptide)
peptide: Ac-[αAllylPro]D[tBuAla][B5(4)]D[Phe(3-COOH)][GlnR]AFL[PyrS2″][2F3MeF(3)][BztA][GlnR](4aminopiperidine)A-NH2
modifications: staple 1-4 (inferred); not fully specified (bridges); printed as Ac-PL3-Asp-Npg-B5-Asp-3COOHF-GlnR-Ala-Phe-Leu-PyrS2-2F3MeF-BztA-[4aminopiperidine]GlnR-Ala-NH2; reading uncertain
Turning to B14, the half-inhibitory concentration (IC50) with beta-catenin (human) [2] is < 750 nM.

B15: I-91 (peptide)
peptide: Ac-[PL3]D[tBuAla][B5][hSer][Phe(3-COOH)]QAFK[PyrS2″][3Thi][BztA][GlnR]A-NH2
modifications: staple 1-4 (inferred); bridge 10-14; not fully specified (residue 10, bridges); printed as Ac-PL3-Asp-Npg-B5-Hse-3COOHF-Gln-Ala-Phe-Lys*3-PyrS2-3Thi-BztA-GlnR*3-Ala-NH2; reading uncertain; also: Lys10 and GlnR14 marked *3
Regarding B15, the IC50 with beta-catenin (human) [2] was < 750 nM.

B16: I-132 (peptide)
peptide: Ac-[αAllylPro]D[tBuAla][B5]D[Phe(3-COOH)][GlnR](29N2spiroundecane)AFL[PyrS2″][2F3MeF″][BztA″][GlnR]A-NH2
modifications: reading uncertain; also: staple links not given here, printed as Ac-PL3-Asp-Npg-B5-Asp-3COOHF-[29N2spiroundecane]GlnR-Ala-Phe-Leu-PyrS2-2F3MeF-BztA-GlnR-Ala-NH2
In the case of B16, the NanoBRET Abs IC50 in the experiment with beta-catenin (human) [3] is > 10000 nM. Also, the half-maximal inhibitory concentration (IC50) with beta-catenin (human) [1] is < 200 nM.

B17: I-41 (peptide)
peptide: Ac-[αAllylPro]D[tBuAla][B5(5)]D[Phe(3-COOH)]AAF[AsnR][PyrS2(5)][3Thi][Bta][Orn]-NH2
modifications: bridge 10-14; reading uncertain; also: PL3/B5/PyrS2 staple links not placed, printed as Ac-PL3-Asp-Npg-B5-Asp-3COOHF-Ala-Ala-Phe-AsnR*3-PyrS2-3Thi-BztA-Orn*3-NH2
As for B17, in the experiment with beta-catenin (human) [2], the IC50 is < 750 nM.

B18: I-89 (peptide)
peptide: Ac-[PL3][hSer][tBuAla][B5]D[Phe(3-COOH)]QAFK[PyrS2″][3Thi][BztA][GlnR]A-NH2
modifications: staple 1-4 (inferred); bridge 10-14; not fully specified (residue 10, bridges); printed as Ac-PL3-Hse-Npg-B5-Asp-3COOHF-Gln-Ala-Phe-Lys*3-PyrS2-3Thi-BztA-GlnR*3-Ala-NH2; reading uncertain; also: Lys10 and GlnR14 marked *3
As for B18, the IC50 in the experiment with beta-catenin (human) [1] was < 200 nM.

B19: I-59 (peptide)
peptide: Ac-[αAllylPro]D[tBuAla][B5(3)]D[Phe(3-COOH)]AAFK[PyrS2(3)][2F3MeF″][Bta][AsnR]A-NH2
modifications: bridge 10-14; not fully specified (bridges); printed as Ac-PL3-Asp-Npg-B5-Asp-3COOHF-Ala-Ala-Phe-Lys*3-PyrS2-2F3MeF-BztA-AsnR*3-Ala-NH2; reading uncertain
For B19, in the experiment with beta-catenin (human) [3], the NanoBRET Abs IC50 was > 10000 nM. Further, in the experiment with beta-catenin (human) [1], the IC50 is < 200 nM.

The record behind these values is US20260207704A1, “STAPLED PEPTIDES AND METHODS THEREOF” (priority 2022, published 2026).
